Assays:
Test in all cases: SPR
LRP1 CR.6–7 doublet = target: LRP1 CR.6–7 doublet
[1] = target: low density lipoprotein receptor-related protein 1 (LRP1) (UniProt Q07954)
[2] = target: LRP1 cluster IV (CR.21–31) (UniProt Q07954)
[3] = target: LRP1 cluster II (CR.3–10) (UniProt Q07954)
LRP1 CR.7–8 doublet = LRP1 CR.7–8 doublet (UniProt Q07954)
LRP1 CR.6–8 triplet = target: LRP1 CR.6–8 triplet
[4] = target: LRP1 CR doublet CR.22-23 (human)
[5] = target: LRP1 CR doublet CR.27-28 (human)
[6] = target: LRP1 CR doublet CR.5-6 (human)

With “Recombinant full-length FVIII (product A) (natural protein)” the Kd (LRP1 CR.6–7 doublet) was 65.2 nM, the Kd [1] was 22.8 nM and the Kd [2] was 19.6 nM. The Kd [3] was 11.3 nM, the Kd (LRP1 CR.7–8 doublet) was 81.5 nM and the Kd (LRP1 CR.6–8 triplet) was 28.4 nM.
“B domain-deleted factor VIII (recombinant, product C) (natural protein)” showed a Kd [4] of 172 nM and a Kd [5] of 165 nM.
“Recombinant full-length factor VIII (natural protein)” showed a Kd [6] of 131 nM.
